Values joined by “and” are separate entries in the source; they are usually repeats but may differ in a detail not shown here. Equal values may be shown once. Bounds are passed on as bounds.

The nature of series [1]: NicA2 Michaelis-Menten assay (LC-MS). In kind it is biochemical. The procedure:
NicA2 activity was determined by LC-MS using Agilent 1260 Infinity liquid chromatography system with 6130 quadrupole mass spectrometry. 20 μl of each sample was injected to a Poroshell 120 EC-C8 column (4.6×50 mm, 2.7 μm, Agilent Technologies) subjected to a gradient (A to B where A=0.1% formic acid in water and B=0.1% formic acid in acetonitrile) of 0% B for 3 min, 0% B to 100% B from 3 to 7 min, and 100% B from 7 to 10 min at a constant flow rate of 0.5 ml/min. A column-solvent equilibration time of 3 min was conducted prior to next sample analysis. MS operational parameters were: API-ES mode, channel 1 (90%) positive single ion monitoring (SIM) of m/z 179 (30%), 161 (30%), 166 (30%) and 163 (10%), corresponding to the M+ peak of the reaction products, labeled internal standard and substrate respectively and channel 2 (10%) scan for positive ions; nitrogen as a nebulizing and drying gas (35 psi, 12 L/min), HV capillary voltage at 4 kV and the drying gas temperature to 300° C. To protect the detector from salts in the buffer, MS was turned on with a delay 1.4 min after injection.
Nicotine was solubilized in ddH2O to a concentration of 10 mM as stock and diluted with HEPES buffer (50 mM, pH=7.4) in the assay. Then 100 μL nicotine solution was mixed with 100 μL NicA2 solution to obtain final concentrations of 0.0625, 0.125, 0.25, 0.5, 1, 2 […] and 10 nM NicA2. After incubating at room temperature for 20 min, 20 μL nicotine methyl D-3 (2 μM in 20% TFA/H2O) solution was added to the mixture as an internal standard and to quench the reaction as well. The samples were injected into the LC-MS for analysis.
For standard curve generation, 0.03125, 0.0625, 0.125, 0.25, 0.5, 1, 2 μM nicotine and 0.4 μM NicA2 was tested and incubated for 2 h for complete oxidation of nicotine.
For the assay at 37° C., all the operations were undertaken in a warm room (37° C.) and solutions were pre-warmed to 37° C. Subsequently protocols were followed as described, vide supra.
Raw data was obtained with Agilent ChemStation, ions with m/z 179,161 (products), 166 (internal standard), 163 (nicotine) were extracted from MS channel 1 (SIM). The area of each peak was integrated and divided by internal standard (IS).
Data was further analyzed with Prism 6.0. For standard curves, the ratios of products to IS were plotted against concentrations of converted nicotine and fitted with linear regression. For experiment data, the ratios were fitted to the standard curves to obtain converted nicotine concentration, and then divided by reaction time (20 min) to get v0. These v0 were plotted against substrate nicotine concentrations using he Michaelis-Menten model to obtain Km and Vmax.
Upon reaction of nicotine with NicA2, three products were observed by LC-MS, one with m/z 179 (4) and two inseparable nicotine metabolites with m/z 161 (1 and 2, FIG. 2). Due to the limitation of instrument sensitivity and the dynamic equilibration of the products, direct quantification of the enzyme's efficiency was challenging. To compensate for these shortcomings, the product peaks 1, 2 and 4 were integrated in order to back-calculate the amount of nicotine consumed by NicA2. Standard curves were generated wherein nicotine was fully oxidized by NicA2 and the m/z 161/179 signals were plotted against a change in nicotine concentration, to provide a direct linear relationship (FIG. 3). The kinetic parameters of the enzyme were thus accurately determined.
To determine kinetic parameters of the enzyme, curves were generated at varying nicotine concentrations utilizing 10 nM NicA2 at room temperature. Samples were analyzed by LC-MS using nicotine (methyl-D3) as an internal standard. Target m/z values (161, 179 and 166) were extracted, integrated and fit to obtain the velocity, v0.

The nature of series [2]: In vivo testing of NicA2: blood and brain nicotine levels in rats. Details: species or system rat. The procedure:
Rats were used for in vivo testing because their nicotine metabolism is generally similar to that of humans with regard to rate and range of metabolites. 30 female, 250 g Sprague Dawley rats were pretreated with varying amounts of NicA2 intravenously as noted in Table B below.
After administration of NicA2 (generally over 5 minutes), nicotine (0.03 mg/kg) was administered intravenously. At 5 minutes, the rats were sacrificed under isoflurane anesthesia and 1 ml blood samples were collected with 0.32 ml heparin. 0.5 ml of each blood sample was added to a tube containing ice cold 2 ml methanol (to quench NicA2 activity) and the contents were rapidly mixed. Another 0.5 ml of each blood sample was added to a tube containing ice cold 2 ml of methanol (to quench NicA2 activity) and deuterium labeled D4-nicotine, and the contents were rapidly mixed. The brains were collected and frozen at −20° C. Measurements were made in accordance with Keyler et al., International Pharmacology 2008, 8, […], and, Hieda et al., Psychopharmacology, 1999, 143(2), 150-157.

Series [3] can be described thus: NicA2 PK study in mice (ELISA of serum). It counts as in vivo, mouse. As to the method:
Purified His-tagged NicA2 was conjugated to 20 kDa PEG and subsequently purified by HPLC. […] The fusion protein was expressed in E. coli and purified as described above for NicA2.
His-tagged NicA2, NicA2-PEG or NicA2-ABD was dosed intravenously in mice at 5 mg/kg. Blood sampling was done at pre-dose and then over a 5 min-72 h period (three animals per time-point) and processed to serum.
Assay of serum samples was done taking advantage of the C-terminal His-tag on the test articles. MaxiSorp ELISA plates (Nunc) were coated overnight with anti-His×6 antibody (purchased from R&D Systems). Plates were blocked with 4% dry milk (purchased from Bio-Rad) in PBS. Dilutions of standard and serum samples in 2% milk in PBS+0.1% Tween-20 were added to the plates, and incubated for 1 hour at room temperature. After washing away unbound substances (all wash steps performed in PBS+0.1% Tween-20), rabbit anti-NicA2 polyclonal primary detection antibody (purchased from Noble Life Sciences, Inc.) was added to the wells for a 1 hour incubation. […] Plates were washed, and the remaining binding complex was detected with TMB substrate (3,3′,5,5′-tetramethylbenzidine; KPL). Once stopped with acid, plates were read on a spectrophotometer at 450 nm and data analyzed in SoftMax® Pro, version 6.5.1 (purchased from Molecular Devices). […]

B1: NicA2: flavin-containing nicotine-degrading enzyme of Pseudomonas putida S16, amino acid sequence SEQ ID NO:1 (protein)
chain: MSDKTKTNEGFSRRSFIGSAAVVTAGVAGLGAIDAASATQKTNRASTVKGGFDYDVVVVGGGFAGATAARECGLQGYRTLLLEARSRLGGRTFTSRFAGQEIEFGGAWVHWLQPHVWAEMQRYGLGVVEDPLTNLDKTLIMYNDGSVESISPDEFGKNIRIAFEKLCHDAWEVFPRPHEPMFTERARELDKSSVLDRIKTLGLSRLQQAQINSYMALYAGETTDKFGLPGVLKLFACGGWNYDAFMDTETHYRIQGGTIGLINAMLTDSGAEVRMSVPVTAVEQVNGGVKIKTDDDEIITAGVVVMTVPLNTYKHIGFTPALSKGKQRFIKEGQLSKGAKLYVHVKQNLGRVFAFADEQQPLNWVQTHDYSDELGTILSITIARKETIDVNDRDAVTREVQKMFPGVEVLGTAAYDWTADPFSLGAWAAYGVGQLSRLKDLQAAEGRILFAGAETSNGWHANIDGAVESGLRAGREVKQLLS
modifications: His tag
In general, Km refers to the concentration of substrate that gives half-maximal velocity. For B1, the specificity constant entry in series [1] is given as “approximately 10^5 M^−1s^−1”. Besides, the Km was 0.092 µM and 0.0919 µM in series [1] (37° C.); 0.0462 ± 0.0064 µM in series [1] (room temperature, m/z 161, 10 nM NicA2); 0.043 µM and 0.0435 µM in series [1] (room temperature, m/z 179, 10 nM NicA2). Moreover, the kcat entry is “(1.32±0.04)×10^−2 s^−1” in series [1] (37° C.); “(7.02 ± 0.23) × 10^−3 s^−1” in series [1] (room temperature, m/z 161); “(6.64 ± 0.17) × 10^−3 s^−1” in series [1] (room temperature, m/z 179). Besides, the brain nicotine levels in series [2] (4 out of the 5 animals, 5 min after 0.03 mg/kg i.v. nicotine) is < 2 ng/mL. In addition, in series [2] (rats, 5 minutes after 0.03 mg/kg i.v. nicotine, n=5), the “blood and brain levels of nicotine” value is “below the limit of quantitation”. Also, the “reduction in nicotine blood levels” value in series [2] (rats, highest NicA2 dose (9.72 mg/kg i.v.), 5 min after 0.03 mg/kg i.v. nicotine, compared to controls) is listed as > 95%. Further, in series [3] (in vivo in mammals, due to renal clearance), the half-life in vivo lay within 3 to 4 h. Also, in series [3] (mice, 5 mg/kg intravenously, serum), the “Half-life” value came out at 3.7 h.

(Values after patent US20190015484A1, “NICOTINE-DEGRADING ENZYMES FOR TREATING NICOTINE ADDICTION AND NICOTINE POISONING” (priority 2015, published 2019).)
